Target: the molecule itself
Experiment: split reporter (BiFC, NanoBiT); PathHunter enzyme fragment complementation in the c-MET homodimer U-2 OS cell line; recombinant human HGF serially diluted; 6 h at room temperature; lower levels with bivalent c-MET mAb, even lower levels with JNJ-61186372 and monovalent c-MET BsAbs

B1: c-MET(1–960) C-terminally fused to a complementary inactive fragment of β-galactosidase (receptor, UniProt P08581 25-960, looked up)
chain: ECKEALAKSEMNVNMKYQLPNFTAETPIQNVILHEHHIFLGATNYIYVLNEEDLQKVAEYKTGPVLEHPDCFPCQDCSSKANLSGGVWKDNINMALVVDTYYDDQLISCGSVNRGTCQRHVFPHNHTADIQSEVHCIFSPQIEEPSQCPDCVVSALGAKVLSSVKDRFINFFVGNTINSSYFPDHPLHSISVRRLKETKDGFMFLTDQSYIDVLPEFRDSYPIKYVHAFESNNFIYFLTVQRETLDAQTFHTRIIRFCSINSGLHSYMEMPLECILTEKRKKRSTKKEVFNILQAAYVSKPGAQLARQIGASLNDDILFGVFAQSKPDSAEPMDRSAMCAFPIKYVNDFFNKIVNKNNVRCLQHFYGPNHEHCFNRTLLRNSSGCEARRDEYRTEFTTALQRVDLFMGQFSEVLLTSISTFIKGDLTIANLGTSEGRFMQVVVSRSGPSTPHVNFLLDSHPVSPEVIVEHTLNQNGYTLVITGKKITKIPLNGLGCRHFQSCSQCLSAPPFVQCGWCHDKCVRSEECLSGTWTQQICLPAIYKVFPNSAPLEGGTRLTICGWDFGFRRNNKFDLKKTRVLLGNESCTLTLSESTMNTLKCTVGPAMNKHFNMSIIISNGHGTTQYSTFSYVDPVITSISPKYGPMAGGTLLTLTGNYLNSGNSRHISIGGKTCTLKSVSNSILECYTPAQTISTEFAVKLKIDLANRETSIFSYREDPIVYEIHPTKSFISGGSTITGVGKNLNSVSVPRMVINVHEAGRNFTVACQHRSNSEIICCTTPSLQQLNLQLPLKTKAFFMLDGILSKYFDLIYVHNPVFKPFEKPVMISMGNENVLEIKGNDIDPEAVKGEVLKVGNKSCENIHLHSEAVLCTVPNDLLKLNSELNIEWKQAISSTVLGKVIVQPDQNFTGLIAGVVSISTALLLLLGFFLWLKKRKQ
notes: signal peptide in the construct; membrane localisation of the construct was checked by flow cytometry; In the homodimer cell line two copies carry the two complementary β-gal fragments; also called hepatocyte growth factor receptor; HGF receptor; source: U-2 OS cells, stably transfected, on cells
- EC50 of HGF for c-MET homodimerization: 3.21 nM
